One molecule from patent CN115703835A (BOAOXIN BIOTECHNOLOGY NANJING CO LTD, dated 2023) can be followed below.

One experiment deals with T1, 人CRR9 (表面表达人CRR9的A549细胞) (human, UniProt Q96KA5 1-538).
T1 construct: whole, on cells; CRR9 as expressed by A549 cells; also called CLPTM1L; 顺铂耐药相关蛋白9
T1 sequence (looked up): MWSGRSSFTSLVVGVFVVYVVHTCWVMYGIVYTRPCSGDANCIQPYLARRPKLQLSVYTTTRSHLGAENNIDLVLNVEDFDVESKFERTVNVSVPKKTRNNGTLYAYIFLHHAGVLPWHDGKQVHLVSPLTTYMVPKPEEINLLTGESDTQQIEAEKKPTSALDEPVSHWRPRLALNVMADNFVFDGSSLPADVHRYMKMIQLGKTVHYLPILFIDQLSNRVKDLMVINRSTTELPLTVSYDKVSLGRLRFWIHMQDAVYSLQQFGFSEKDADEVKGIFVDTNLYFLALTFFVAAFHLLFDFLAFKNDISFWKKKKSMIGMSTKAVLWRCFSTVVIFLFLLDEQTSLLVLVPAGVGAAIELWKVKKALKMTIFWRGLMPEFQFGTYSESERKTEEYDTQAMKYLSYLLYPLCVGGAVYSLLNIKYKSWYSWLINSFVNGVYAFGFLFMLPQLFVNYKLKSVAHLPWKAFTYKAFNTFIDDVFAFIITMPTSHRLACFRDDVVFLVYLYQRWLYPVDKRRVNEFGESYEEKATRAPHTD
Description: flow cytometry on A549 cells. A general note: In flow cytometry, cells or beads pass a laser one at a time.

In experiment [1] the target is T2, 重组人CRR9蛋白 (human CRR9-TEV-Fc蛋白) (human, UniProt Q96KA5 32-284, biotin-labelled in the capture ELISA and the blocking ELISA (sites not given)).
T2 construct: range 32-284; Made in-house; The order of parts follows the printed name CRR9-TEV-Fc; also called 人CRR9-TEV-Fc; CRR9-生物素; not shown: TEV site; Fc
T2 sequence (looked up): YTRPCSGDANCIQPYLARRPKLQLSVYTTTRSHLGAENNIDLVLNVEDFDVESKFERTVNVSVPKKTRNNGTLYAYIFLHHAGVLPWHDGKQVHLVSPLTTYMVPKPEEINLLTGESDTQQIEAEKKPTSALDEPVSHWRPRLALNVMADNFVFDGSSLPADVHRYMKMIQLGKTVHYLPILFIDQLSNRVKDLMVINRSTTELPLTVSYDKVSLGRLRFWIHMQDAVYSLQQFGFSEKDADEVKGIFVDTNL
Description: capture ELISA: antibody captured on GAM(Fc), biotinylated human CRR9-TEV-Fc at 0.2 ug/ml, SA-HRP. On the technique in general: ELISA stands for enzyme-linked immunosorbent assay.

B1: 小鼠抗人CRR9单克隆抗体 A1C3G3B2 (antibody, V domains shown)
VH: QIQLVQSGPELKKPGETVKISCKASGYTFTNYGMSWVRQAPGKGLKWMGWINTNTGEPTYAEEFKGRFAFSLETSASTAYLQINNLKNEDTATYFCSRDYYYGGRGYFDYWGQGTTLTVSS
VL: QIVLTQSPAIMSASPGEKVTMTCSATSIVSYMHWYQQKSGTSPKRWIYDTSKLASGVPARFSGSGSGTSYSLTISSMEAADAATYYCQQWSYNPLTFGSGTKLELK
notes: Mouse monoclonal antibody purified from a hybridoma; also called 抗CRR9单克隆抗体
With B1, the binding result (with 人CRR9 (表面表达人CRR9的A549细胞); in experiment [1]) was “binds” in each case.
